{"source": "paper PMC7372559", "about": "(ACS Chemical Biology, 2020)", "proteins": {"B1": {"name": "OphMA wild type, full-length, His8-tagged (enzyme, Omphalotus olearius, UniProt A0A2R2JFI5 1-417, looked up)", "chain": "METSTQTKAGSLTIVGTGIESIGQMTLQALSYIEAAAKVFYCVIDPATEAFILTKNKNCVDLYQYYDNGKSRLNTYTQMSELMVREVRKGLDVVGVFYGHPGVFVNPSHRALAIAKSEGYRARMLPGVSAEDCLFADLCIDPSNPGCLTYEASDFLIRDRPVSIHSHLVLFQVGCVGIADFNFTGFDNNKFGVLVDRLEQEYGAEHPVVHYIAAMMPHQDPVTDKYTVAQLREPEIAKRVGGVSTFYIPPKARKASNLDIIRRLELLPAGQVPDKKARIYPANQWEPDVPEVEPYRPSDQAAIAQLADHAPPEQYQPLATSKAMSDVMTKLALDPKALADYKADHRAFAQSVPDLTPQERAALELGDSWAIRCAMKNMPSSLLDAARESGEEASQNGFPWVIVVGVIGVIGSVMSTE", "modifications": "backbone N-methylation: most abundant species with complete methylation of the core peptide (9-fold) and an additional methylation at Val413"}, "B2": {"name": "OphMA V403T, full-length, His-tagged (enzyme)", "chain": "METSTQTKAGSLTIVGTGIESIGQMTLQALSYIEAAAKVFYCVIDPATEAFILTKNKNCVDLYQYYDNGKSRLNTYTQMSELMVREVRKGLDVVGVFYGHPGVFVNPSHRALAIAKSEGYRARMLPGVSAEDCLFADLCIDPSNPGCLTYEASDFLIRDRPVSIHSHLVLFQVGCVGIADFNFTGFDNNKFGVLVDRLEQEYGAEHPVVHYIAAMMPHQDPVTDKYTVAQLREPEIAKRVGGVSTFYIPPKARKASNLDIIRRLELLPAGQVPDKKARIYPANQWEPDVPEVEPYRPSDQAAIAQLADHAPPEQYQPLATSKAMSDVMTKLALDPKALADYKADHRAFAQSVPDLTPQERAALELGDSWAIRCAMKNMPSSLLDAARESGEEASQNGFPWVITVGVIGVIGSVMSTE", "modifications": "backbone N-methylation: 10-fold methylated species most abundant"}, "B3": {"name": "OphMA V404E, full-length, His-tagged (in vivo methylation series) (enzyme)", "chain": "METSTQTKAGSLTIVGTGIESIGQMTLQALSYIEAAAKVFYCVIDPATEAFILTKNKNCVDLYQYYDNGKSRLNTYTQMSELMVREVRKGLDVVGVFYGHPGVFVNPSHRALAIAKSEGYRARMLPGVSAEDCLFADLCIDPSNPGCLTYEASDFLIRDRPVSIHSHLVLFQVGCVGIADFNFTGFDNNKFGVLVDRLEQEYGAEHPVVHYIAAMMPHQDPVTDKYTVAQLREPEIAKRVGGVSTFYIPPKARKASNLDIIRRLELLPAGQVPDKKARIYPANQWEPDVPEVEPYRPSDQAAIAQLADHAPPEQYQPLATSKAMSDVMTKLALDPKALADYKADHRAFAQSVPDLTPQERAALELGDSWAIRCAMKNMPSSLLDAARESGEEASQNGFPWVIVEGVIGVIGSVMSTE", "modifications": "backbone N-methylation: peptides with 2 methylations"}, "B4": {"name": "OphMA V403P, full-length, His-tagged (enzyme)", "chain": "METSTQTKAGSLTIVGTGIESIGQMTLQALSYIEAAAKVFYCVIDPATEAFILTKNKNCVDLYQYYDNGKSRLNTYTQMSELMVREVRKGLDVVGVFYGHPGVFVNPSHRALAIAKSEGYRARMLPGVSAEDCLFADLCIDPSNPGCLTYEASDFLIRDRPVSIHSHLVLFQVGCVGIADFNFTGFDNNKFGVLVDRLEQEYGAEHPVVHYIAAMMPHQDPVTDKYTVAQLREPEIAKRVGGVSTFYIPPKARKASNLDIIRRLELLPAGQVPDKKARIYPANQWEPDVPEVEPYRPSDQAAIAQLADHAPPEQYQPLATSKAMSDVMTKLALDPKALADYKADHRAFAQSVPDLTPQERAALELGDSWAIRCAMKNMPSSLLDAARESGEEASQNGFPWVIPVGVIGVIGSVMSTE", "modifications": "backbone N-methylation: dominant species unmethylated, evidence for two methylations"}, "B5": {"name": "OphMA I407P, full-length, His-tagged (in vivo methylation series) (enzyme)", "chain": "METSTQTKAGSLTIVGTGIESIGQMTLQALSYIEAAAKVFYCVIDPATEAFILTKNKNCVDLYQYYDNGKSRLNTYTQMSELMVREVRKGLDVVGVFYGHPGVFVNPSHRALAIAKSEGYRARMLPGVSAEDCLFADLCIDPSNPGCLTYEASDFLIRDRPVSIHSHLVLFQVGCVGIADFNFTGFDNNKFGVLVDRLEQEYGAEHPVVHYIAAMMPHQDPVTDKYTVAQLREPEIAKRVGGVSTFYIPPKARKASNLDIIRRLELLPAGQVPDKKARIYPANQWEPDVPEVEPYRPSDQAAIAQLADHAPPEQYQPLATSKAMSDVMTKLALDPKALADYKADHRAFAQSVPDLTPQERAALELGDSWAIRCAMKNMPSSLLDAARESGEEASQNGFPWVIVVGVPGVIGSVMSTE", "modifications": "backbone N-methylation: a variety of species (two to four methylations), evidence of up to six"}, "B6": {"name": "OphMA V406R, full-length, His-tagged (enzyme)", "chain": "METSTQTKAGSLTIVGTGIESIGQMTLQALSYIEAAAKVFYCVIDPATEAFILTKNKNCVDLYQYYDNGKSRLNTYTQMSELMVREVRKGLDVVGVFYGHPGVFVNPSHRALAIAKSEGYRARMLPGVSAEDCLFADLCIDPSNPGCLTYEASDFLIRDRPVSIHSHLVLFQVGCVGIADFNFTGFDNNKFGVLVDRLEQEYGAEHPVVHYIAAMMPHQDPVTDKYTVAQLREPEIAKRVGGVSTFYIPPKARKASNLDIIRRLELLPAGQVPDKKARIYPANQWEPDVPEVEPYRPSDQAAIAQLADHAPPEQYQPLATSKAMSDVMTKLALDPKALADYKADHRAFAQSVPDLTPQERAALELGDSWAIRCAMKNMPSSLLDAARESGEEASQNGFPWVIVVGRIGVIGSVMSTE", "modifications": "backbone N-methylation: dominant species unmethylated, next most abundant with two methylations"}, "B7": {"name": "OphMA V403E, full-length, His-tagged (enzyme)", "chain": "METSTQTKAGSLTIVGTGIESIGQMTLQALSYIEAAAKVFYCVIDPATEAFILTKNKNCVDLYQYYDNGKSRLNTYTQMSELMVREVRKGLDVVGVFYGHPGVFVNPSHRALAIAKSEGYRARMLPGVSAEDCLFADLCIDPSNPGCLTYEASDFLIRDRPVSIHSHLVLFQVGCVGIADFNFTGFDNNKFGVLVDRLEQEYGAEHPVVHYIAAMMPHQDPVTDKYTVAQLREPEIAKRVGGVSTFYIPPKARKASNLDIIRRLELLPAGQVPDKKARIYPANQWEPDVPEVEPYRPSDQAAIAQLADHAPPEQYQPLATSKAMSDVMTKLALDPKALADYKADHRAFAQSVPDLTPQERAALELGDSWAIRCAMKNMPSSLLDAARESGEEASQNGFPWVIEVGVIGVIGSVMSTE", "modifications": "backbone N-methylation: peptides with 1 methylation"}, "B8": {"name": "OphMA V406E, full-length, His-tagged (enzyme)", "chain": "METSTQTKAGSLTIVGTGIESIGQMTLQALSYIEAAAKVFYCVIDPATEAFILTKNKNCVDLYQYYDNGKSRLNTYTQMSELMVREVRKGLDVVGVFYGHPGVFVNPSHRALAIAKSEGYRARMLPGVSAEDCLFADLCIDPSNPGCLTYEASDFLIRDRPVSIHSHLVLFQVGCVGIADFNFTGFDNNKFGVLVDRLEQEYGAEHPVVHYIAAMMPHQDPVTDKYTVAQLREPEIAKRVGGVSTFYIPPKARKASNLDIIRRLELLPAGQVPDKKARIYPANQWEPDVPEVEPYRPSDQAAIAQLADHAPPEQYQPLATSKAMSDVMTKLALDPKALADYKADHRAFAQSVPDLTPQERAALELGDSWAIRCAMKNMPSSLLDAARESGEEASQNGFPWVIVVGEIGVIGSVMSTE", "modifications": "backbone N-methylation: mixture of similarly abundant peptides containing 4, 5, or 6 methylations"}, "B9": {"name": "OphMA V403R, full-length, His-tagged (enzyme)", "chain": "METSTQTKAGSLTIVGTGIESIGQMTLQALSYIEAAAKVFYCVIDPATEAFILTKNKNCVDLYQYYDNGKSRLNTYTQMSELMVREVRKGLDVVGVFYGHPGVFVNPSHRALAIAKSEGYRARMLPGVSAEDCLFADLCIDPSNPGCLTYEASDFLIRDRPVSIHSHLVLFQVGCVGIADFNFTGFDNNKFGVLVDRLEQEYGAEHPVVHYIAAMMPHQDPVTDKYTVAQLREPEIAKRVGGVSTFYIPPKARKASNLDIIRRLELLPAGQVPDKKARIYPANQWEPDVPEVEPYRPSDQAAIAQLADHAPPEQYQPLATSKAMSDVMTKLALDPKALADYKADHRAFAQSVPDLTPQERAALELGDSWAIRCAMKNMPSSLLDAARESGEEASQNGFPWVIRVGVIGVIGSVMSTE", "modifications": "backbone N-methylation: dominant species unmethylated, next most abundant with two methylations"}, "B10": {"name": "OphMA V404R, full-length, His-tagged (enzyme)", "chain": "METSTQTKAGSLTIVGTGIESIGQMTLQALSYIEAAAKVFYCVIDPATEAFILTKNKNCVDLYQYYDNGKSRLNTYTQMSELMVREVRKGLDVVGVFYGHPGVFVNPSHRALAIAKSEGYRARMLPGVSAEDCLFADLCIDPSNPGCLTYEASDFLIRDRPVSIHSHLVLFQVGCVGIADFNFTGFDNNKFGVLVDRLEQEYGAEHPVVHYIAAMMPHQDPVTDKYTVAQLREPEIAKRVGGVSTFYIPPKARKASNLDIIRRLELLPAGQVPDKKARIYPANQWEPDVPEVEPYRPSDQAAIAQLADHAPPEQYQPLATSKAMSDVMTKLALDPKALADYKADHRAFAQSVPDLTPQERAALELGDSWAIRCAMKNMPSSLLDAARESGEEASQNGFPWVIVRGVIGVIGSVMSTE", "modifications": "backbone N-methylation: dominant species unmethylated, next most abundant with two methylations"}, "B11": {"name": "OphMA V406P, full-length, His-tagged (in vivo methylation series) (enzyme)", "chain": "METSTQTKAGSLTIVGTGIESIGQMTLQALSYIEAAAKVFYCVIDPATEAFILTKNKNCVDLYQYYDNGKSRLNTYTQMSELMVREVRKGLDVVGVFYGHPGVFVNPSHRALAIAKSEGYRARMLPGVSAEDCLFADLCIDPSNPGCLTYEASDFLIRDRPVSIHSHLVLFQVGCVGIADFNFTGFDNNKFGVLVDRLEQEYGAEHPVVHYIAAMMPHQDPVTDKYTVAQLREPEIAKRVGGVSTFYIPPKARKASNLDIIRRLELLPAGQVPDKKARIYPANQWEPDVPEVEPYRPSDQAAIAQLADHAPPEQYQPLATSKAMSDVMTKLALDPKALADYKADHRAFAQSVPDLTPQERAALELGDSWAIRCAMKNMPSSLLDAARESGEEASQNGFPWVIVVGPIGVIGSVMSTE", "modifications": "backbone N-methylation: dominant species unmethylated, evidence for two and four methylations"}, "B12": {"name": "OphMA I407R, full-length, His-tagged (enzyme)", "chain": "METSTQTKAGSLTIVGTGIESIGQMTLQALSYIEAAAKVFYCVIDPATEAFILTKNKNCVDLYQYYDNGKSRLNTYTQMSELMVREVRKGLDVVGVFYGHPGVFVNPSHRALAIAKSEGYRARMLPGVSAEDCLFADLCIDPSNPGCLTYEASDFLIRDRPVSIHSHLVLFQVGCVGIADFNFTGFDNNKFGVLVDRLEQEYGAEHPVVHYIAAMMPHQDPVTDKYTVAQLREPEIAKRVGGVSTFYIPPKARKASNLDIIRRLELLPAGQVPDKKARIYPANQWEPDVPEVEPYRPSDQAAIAQLADHAPPEQYQPLATSKAMSDVMTKLALDPKALADYKADHRAFAQSVPDLTPQERAALELGDSWAIRCAMKNMPSSLLDAARESGEEASQNGFPWVIVVGVRGVIGSVMSTE", "modifications": "backbone N-methylation: dominant species carried three methylations"}, "B13": {"name": "OphMA I407E, full-length, His-tagged (enzyme)", "chain": "METSTQTKAGSLTIVGTGIESIGQMTLQALSYIEAAAKVFYCVIDPATEAFILTKNKNCVDLYQYYDNGKSRLNTYTQMSELMVREVRKGLDVVGVFYGHPGVFVNPSHRALAIAKSEGYRARMLPGVSAEDCLFADLCIDPSNPGCLTYEASDFLIRDRPVSIHSHLVLFQVGCVGIADFNFTGFDNNKFGVLVDRLEQEYGAEHPVVHYIAAMMPHQDPVTDKYTVAQLREPEIAKRVGGVSTFYIPPKARKASNLDIIRRLELLPAGQVPDKKARIYPANQWEPDVPEVEPYRPSDQAAIAQLADHAPPEQYQPLATSKAMSDVMTKLALDPKALADYKADHRAFAQSVPDLTPQERAALELGDSWAIRCAMKNMPSSLLDAARESGEEASQNGFPWVIVVGVEGVIGSVMSTE", "modifications": "backbone N-methylation: peptides with 5 methylations"}}}
{"molecular_target": "the molecule itself", "test": "SEC; Superdex-200 Increase column, 25 mM Tris-HCl (pH 8.0), 10% (v/v) glycerol, 100 mM NaCl; retention time of mutants compared with wild type"}
{"protein": "B1", "stoichiometry N": 2}
{"protein": "B2", "stoichiometry N": 2}
{"protein": "B3", "stoichiometry N": 2}
{"protein": "B4", "stoichiometry N": 2}
{"protein": "B5", "stoichiometry N": 2}
{"protein": "B6", "stoichiometry N": 2}
{"protein": "B7", "stoichiometry N": 2}
{"protein": "B8", "stoichiometry N": 2}
{"protein": "B9", "stoichiometry N": 2}
{"protein": "B10", "stoichiometry N": 2}
{"protein": "B11", "stoichiometry N": 2}
{"protein": "B12", "stoichiometry N": 2}
{"protein": "B13", "stoichiometry N": 2}
